Data published in paper PMC6093649.

Target: T1, Chp2 chromodomain (recombinant Chp2-CD, wild type) (S. pombe)
T1 sequence (O42934 whole entry, looked up): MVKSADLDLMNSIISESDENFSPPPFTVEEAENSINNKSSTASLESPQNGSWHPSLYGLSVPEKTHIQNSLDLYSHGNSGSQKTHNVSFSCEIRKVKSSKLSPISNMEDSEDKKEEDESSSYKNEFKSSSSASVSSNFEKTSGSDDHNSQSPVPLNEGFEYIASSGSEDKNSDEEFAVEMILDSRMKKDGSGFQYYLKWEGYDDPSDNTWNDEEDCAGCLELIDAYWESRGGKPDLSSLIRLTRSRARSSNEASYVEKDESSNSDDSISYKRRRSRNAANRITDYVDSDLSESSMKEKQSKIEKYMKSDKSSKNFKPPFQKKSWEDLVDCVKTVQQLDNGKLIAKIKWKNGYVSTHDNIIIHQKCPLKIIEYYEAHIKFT
Test: ITC; MicroCal VP-ITC, 20°C; Chp2-CD protein in 20 mM KPO4 pH 6.8, 100 mM NaCl; H3K9me3 peptide injected into the protein in 1-μl aliquots at 3-min intervals

Kd: 4.37 µM
Binder: ARTKQTARKSTGGKAPRY (trimethyl-lysine at position 9 (Lys[Me]3)) [K9-trimethylated histone H3 (H3K9me3) peptide (1–18)]
